Test results from publication PMC10516637, “FANCD2 and RAD51 recombinase directly inhibit DNA2 nuclease at stalled replication forks and FANCD2 acts as a novel RAD51 mediator in strand exchange to promote genome stability” (Nucleic Acids Research, 2023).

Target: T1, His-tagged human FANCD2 purified from E. coli (human, UniProt Q9BXW9 1-1451)
T1 construct: human FANCD2; non-ubiquitinylated single band on a gel; also called FANCD2-His; hFANCD2; source: E. coli BL21(DE3) CodonPlus, purified (Ni-NTA, Q Sepharose, Superdex 200)
Assay: pull-down; FLAG-DNA2 purified on M2 FLAG beads, incubated with purified FANCD2 (1 ug/ml) at 4 C for 1 h; washed with PBS 5 times; western blot; empty M2 beads as control
Settings: both partners purified

T1 sequence (Q9BXW9 whole entry): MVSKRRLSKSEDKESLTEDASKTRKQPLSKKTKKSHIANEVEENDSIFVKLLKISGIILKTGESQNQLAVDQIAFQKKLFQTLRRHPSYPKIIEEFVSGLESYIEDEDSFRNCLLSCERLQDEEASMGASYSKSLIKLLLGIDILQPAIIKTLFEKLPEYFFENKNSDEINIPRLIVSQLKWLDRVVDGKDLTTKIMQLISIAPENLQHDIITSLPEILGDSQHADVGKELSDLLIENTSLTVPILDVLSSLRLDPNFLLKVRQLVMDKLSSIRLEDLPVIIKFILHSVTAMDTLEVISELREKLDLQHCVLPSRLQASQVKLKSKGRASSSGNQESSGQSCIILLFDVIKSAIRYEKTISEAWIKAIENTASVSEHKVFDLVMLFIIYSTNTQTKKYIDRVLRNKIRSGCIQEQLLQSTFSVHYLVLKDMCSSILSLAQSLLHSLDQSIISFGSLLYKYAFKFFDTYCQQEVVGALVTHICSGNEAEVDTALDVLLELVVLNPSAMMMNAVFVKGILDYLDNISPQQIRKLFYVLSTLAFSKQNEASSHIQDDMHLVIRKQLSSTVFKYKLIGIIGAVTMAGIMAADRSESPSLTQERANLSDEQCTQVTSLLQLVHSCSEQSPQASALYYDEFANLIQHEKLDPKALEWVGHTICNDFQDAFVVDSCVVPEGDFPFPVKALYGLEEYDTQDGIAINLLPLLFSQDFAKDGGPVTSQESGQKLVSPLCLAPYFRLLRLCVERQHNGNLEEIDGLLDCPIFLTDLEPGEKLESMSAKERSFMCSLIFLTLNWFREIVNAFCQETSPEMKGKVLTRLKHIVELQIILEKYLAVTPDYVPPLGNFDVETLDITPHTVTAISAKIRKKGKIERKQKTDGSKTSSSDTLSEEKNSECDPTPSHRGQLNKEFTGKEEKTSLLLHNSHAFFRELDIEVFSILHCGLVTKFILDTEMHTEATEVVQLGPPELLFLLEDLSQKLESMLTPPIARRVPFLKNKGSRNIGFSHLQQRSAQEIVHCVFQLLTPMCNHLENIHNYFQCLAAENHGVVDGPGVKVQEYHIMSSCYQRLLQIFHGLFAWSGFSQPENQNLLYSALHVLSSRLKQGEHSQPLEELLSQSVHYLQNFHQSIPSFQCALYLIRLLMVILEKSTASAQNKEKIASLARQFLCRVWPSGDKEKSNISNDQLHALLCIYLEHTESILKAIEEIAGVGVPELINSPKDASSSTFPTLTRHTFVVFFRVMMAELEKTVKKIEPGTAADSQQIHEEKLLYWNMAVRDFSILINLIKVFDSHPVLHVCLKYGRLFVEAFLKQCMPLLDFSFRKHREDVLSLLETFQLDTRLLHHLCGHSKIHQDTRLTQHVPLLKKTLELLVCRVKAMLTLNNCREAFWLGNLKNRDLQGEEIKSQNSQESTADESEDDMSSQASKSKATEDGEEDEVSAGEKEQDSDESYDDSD

B1: FLAG-tagged human DNA2 from 293T cells (enzyme, UniProt P51530 1-1060, looked up)
chain: MEQLNELELLMEKSFWEEAELPAELFQKKVVASFPRTVLSTGMDNRYLVLAVNTVQNKEGNCEKRLVITASQSLENKELCILRNDWCSVPVEPGDIIHLEGDCTSDTWIIDKDFGYLILYPDMLISGTSIASSIRCMRRAVLSETFRSSDPATRQMLIGTVLHEVFQKAINNSFAPEKLQELAFQTIQEIRHLKEMYRLNLSQDEIKQEVEDYLPSFCKWAGDFMHKNTSTDFPQMQLSLPSDNSKDNSTCNIEVVKPMDIEESIWSPRFGLKGKIDVTVGVKIHRGYKTKYKIMPLELKTGKESNSIEHRSQVVLYTLLSQERRADPEAGLLLYLKTGQMYPVPANHLDKRELLKLRNQMAFSLFHRISKSATRQKTQLASLPQIIEEEKTCKYCSQIGNCALYSRAVEQQMDCSSVPIVMLPKIEEETQHLKQTHLEYFSLWCLMLTLESQSKDNKKNHQNIWLMPASEMEKSGSCIGNLIRMEHVKIVCDGQYLHNFQCKHGAIPVTNLMAGDRVIVSGEERSLFALSRGYVKEINMTTVTCLLDRNLSVLPESTLFRLDQEEKNCDIDTPLGNLSKLMENTFVSKKLRDLIIDFREPQFISYLSSVLPHDAKDTVACILKGLNKPQRQAMKKVLLSKDYTLIVGMPGTGKTTTICTLVRILYACGFSVLLTSYTHSAVDNILLKLAKFKIGFLRLGQIQKVHPAIQQFTEQEICRSKSIKSLALLEELYNSQLIVATTCMGINHPIFSRKIFDFCIVDEASQISQPICLGPLFFSRRFVLVGDHQQLPPLVLNREARALGMSESLFKRLEQNKSAVVQLTVQYRMNSKIMSLSNKLTYEGKLECGSDKVANAVINLRHFKDVKLELEFYADYSDNPWLMGVFEPNNPVCFLNTDKVPAPEQVEKGGVSNVTEAKLIVFLTSIFVKAGCSPSDIGIIAPYRQQLKIINDLLARSIGMVEVNTVDKYQGRDKSIVLVSFVRSNKDGTVGELLKDWRRLNVAITRAKHKLILLGCVPSLNCYPPLEKLLNHLNSEKLIIDLPSREHESLCHILGDFQRE
notes: human DNA2 helicase/nuclease; also called FLAG-DNA2; hDNA2; source: 293T, over-expressed, purified (M2 FLAG beads, 3x FLAG peptide elution); HEK-293T, over-expressed, in lysate
B1: binds.
